In the assay the target is human CD44v6 on antigen-positive FaDu cells (human) (UniProt P16070). Put plainly: flow cytometry (FACS) on antigen-positive FaDu cells, on ice 1 h, FITC-labeled anti-human IgG detection. A general note: Flow cytometry measures light scatter and fluorescence of single cells or particles in a stream.

Our source for the Kd values is patent publication US20040126379A1.

For the molecule BIWI 1 (from UniProt P0DOX5 2-449), the Kd (commonly the free concentration of one partner at which half of the binding sites on the other are occupied at equilibrium, for simple one-to-one binding) was 1.8 nM.

B1: BIWA 4 (antibody, human IgG1, kappa, V domains shown)
VH: EVQLVESGGGLVKPGGSLRLSCAASGFTFSSYDMSWVRQAPGKGLEWVSTISSGGSYTYYLDSIKGRFTISRDNAKNSLYLQMNSLRAEDTAVYYCARQGLDYWGRGTLVTVSS
VL: EIVLTQSPATLSLSPGERATLSCSASSSINYIYWYQQKPGQAPRLLIYLTSNLASGVPARFSGSGSGTDFTLTISSLEPEDFAVYYCLQWSSNPLTFGGGTKVEIKR
Turning to B1, the Kd was 1 nM.
